Biological target: Fzd4 (Homo sapiens (Human)) (UniProt Q9ULV1)
Test: cell-based or functional assay

Sequence of UniProt Q9ULV1 (Q9ULV1 37-537 limits assumed, form in doubt): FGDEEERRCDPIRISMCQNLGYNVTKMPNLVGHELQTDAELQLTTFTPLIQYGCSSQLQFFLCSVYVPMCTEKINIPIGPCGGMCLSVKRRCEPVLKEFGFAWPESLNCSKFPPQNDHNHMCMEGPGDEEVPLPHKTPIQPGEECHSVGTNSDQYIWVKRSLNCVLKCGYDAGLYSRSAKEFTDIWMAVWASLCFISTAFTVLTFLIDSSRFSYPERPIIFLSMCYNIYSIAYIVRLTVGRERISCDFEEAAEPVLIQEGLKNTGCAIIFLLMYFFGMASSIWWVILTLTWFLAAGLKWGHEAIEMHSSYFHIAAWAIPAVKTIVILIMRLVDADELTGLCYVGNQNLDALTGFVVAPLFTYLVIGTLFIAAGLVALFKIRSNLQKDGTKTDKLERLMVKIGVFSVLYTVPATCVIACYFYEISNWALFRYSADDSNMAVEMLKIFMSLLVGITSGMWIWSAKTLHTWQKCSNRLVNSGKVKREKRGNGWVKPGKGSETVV

Topflash reporter activity (firefly divided by renilla), cells overexpressing TSPAN12 against control cells, 10 nM recombinant Norrin: 4 fold
Substance: recombinant Norrin (ligand)

Reference: US20150093375A1
